# Reference: IntAct's records for PubMed 25117763
# B1: Axin interactor, dorsalization-associated protein (Mus musculus), Q8C4Q6-1 (parent)
# chain: MSEVTRSLLQRWGASLRRGADFDSWGQLVEAIDEYQILARHLQKEAQAQHNNSEFTEEQKKTIGKIATCLELRSAALQSTQSQEEFKLEDLKKLEPILKNILTYNKEFPFDVQPIPLRRILAPGEEENLEFEEDEEGGAGAGPPDSFSARVPGTLLPRLPSEPGMTLLTIRIEKIGLKDAGQCIDPYITVSVKDLNGIDLTPVQDTPVASRKEDTYVHFNVDIELQKHVERLTKGAAIFFEFKHYKPKKRFTSTKCFAFMEMDEIKPGPIVIELYKKPTDFKRKKLQLLTKKPLYLHLHQSLHKE
# Variants of: B1
# Conditions: with Axin1, O35625-2
# Sequence of Axin1, O35625-2 (O35625 other isoform, or with tags, fused parts or gaps): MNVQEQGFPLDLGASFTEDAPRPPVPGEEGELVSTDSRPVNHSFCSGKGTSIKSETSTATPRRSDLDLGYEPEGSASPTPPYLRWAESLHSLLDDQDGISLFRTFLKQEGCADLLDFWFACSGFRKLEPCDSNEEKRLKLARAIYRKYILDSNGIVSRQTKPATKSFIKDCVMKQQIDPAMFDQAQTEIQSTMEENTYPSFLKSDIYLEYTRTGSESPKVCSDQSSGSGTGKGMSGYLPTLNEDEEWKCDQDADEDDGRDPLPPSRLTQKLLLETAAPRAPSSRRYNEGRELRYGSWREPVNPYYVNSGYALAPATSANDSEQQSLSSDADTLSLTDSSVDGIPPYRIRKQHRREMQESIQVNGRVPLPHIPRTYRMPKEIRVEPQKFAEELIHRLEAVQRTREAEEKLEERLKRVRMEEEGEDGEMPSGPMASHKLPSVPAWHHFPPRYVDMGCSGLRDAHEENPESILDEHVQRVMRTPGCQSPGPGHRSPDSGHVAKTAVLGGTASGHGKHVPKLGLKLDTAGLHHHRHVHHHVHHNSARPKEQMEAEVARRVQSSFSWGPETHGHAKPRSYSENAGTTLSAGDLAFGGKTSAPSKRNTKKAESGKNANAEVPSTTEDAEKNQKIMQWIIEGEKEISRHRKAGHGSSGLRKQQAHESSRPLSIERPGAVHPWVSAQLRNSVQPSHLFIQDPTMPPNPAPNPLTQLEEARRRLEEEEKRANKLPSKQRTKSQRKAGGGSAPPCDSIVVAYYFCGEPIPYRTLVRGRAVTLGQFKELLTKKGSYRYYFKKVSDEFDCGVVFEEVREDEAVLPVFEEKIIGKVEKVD
row,Variant,effect of a mutation on the interaction
1,MSEVTRSLLQRWGASLRRGADFDSWGQLVEAIDEYQILARHLQKEAQAQHNNSEFTEEQKKTIGKIATCLELRSAALQSTQSQEEFKLEDLKKLEPILKNILTYNKEFPFDVQPIPLRRILAPGEEENLEFEEDEEGGAGAGPPDSFSARVPGTLLPRLPSEPGMTLLTIRIEKIGLKDAGQCIDPYITVSVKDLNGIDLTPVQDTPVASRKEDTYVHFNVDIELQKHVERLTKGAAIFFEFKHYKPKKRFTSTKCFAFMEMDEIKPGPIVIELYKKPTDFAAAALQLLTKKPLYLHLHQSLHKE [K282A;R283A;K284A;K285A],disrupting interaction
